# Assay results from the supplement of paper PMC7877785.
# ± gives the uncertainty stated by the source.
# Test: self-splicing fitness, log relative to wild type (ln ratio); higher = more splicing; Tetrahymena group I intron in knt gene, E. coli kanamycin selection, DiMSum; sequences stand for … in CUCUCU…GGAGGGAAAAGUUAUCAGGCAUGCACCUGGUAGCUAGUCUUUAAACCAAUAGAUUGCAUCGGUUUAAAAGGCAAGACCGUCAAAUUGCGGGAAAGGGGUCAACAGCCGUUCAGUACCAAGUCUCAGGGGAAACUUUGAGAUGGCCUUGCAAAGGGUAUGGUAAUAAGCUGACGGACAUGGUCCUAACCACGCAGCCAAGUCCUAAGUCAACAGAUCUUCUGUUGAUAUGGAUGCAGUUCACAGACUAAAUGUCGGUCGGGGAAGAUGUAUUCUUCUCAUAAGAUAUAGUCGGACCUCUCCUUAAUGGGAGCUAGCGGAUGAAGUGAUGCAACACUGGAGCCGCUGGGAACUAAUUUGUAUGCGAAAGUAUAUUGAUUAGUUUUGGAGUACUCGUGGUCG
# Method in brief: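 Colonies from six replicate transformations of E. coli BL21(DE3) were pooled and amplicon-sequenced on an Illumina HiSeq 2500. The library placed an intron with all eight P1ex-region nucleotides randomised inside the knt kanamycin-resistance gene on pET-22b(+), and cells grew overnight at 37°C or 30°C on LB agar with or without 25 μg/mL kanamycin (plus 100 μg/mL carbenicillin, 50 μM IPTG, 0.2% rhamnose). Fitness is the DiMSum error-weighted combination of wild-type-normalised replicate fold changes, kanamycin versus none.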
Sequence,self-splicing fitness (ln) (30 °C),self-splicing fitness (ln) (37 °C)
UGGGAGCAAUAUUACGGGCA,-2.36 ± 0.16,-0.757 ± 0.16
AAAGAGCAAUAUUACGCGAC,-2.55 ± 0.2,-0.998 ± 0.14
CUGCAGCAAUAUUACGCAGG,-2.91 ± 0.17,-2.15 ± 0.16
UGCCAGCAAUAUUACGGGCA,-3.85 ± 0.27,-2.48 ± 0.24
CCAGAGCAAUAUUACGUGAU,-3.93 ± 0.22,-2.67 ± 0.28
AUGGAGCAAUAUUACGGGAC,-5.23 ± 0.41,-2.7 ± 0.25
UGCGAGCAAUAUUACGCAUA,-3.48 ± 0.43,-3 ± 0.36
GACGAGCAAUAUUACGUCUC,-3.48 ± 0.36,-1.23 ± 0.28
GUGUAGCAAUAUUACGGCCC,0.713 ± 0.23,0.583 ± 0.3
UCGGAGCAAUAUUACGUCGU,-1.37 ± 0.25,-1.73 ± 0.3
AGGAAGCAAUAUUACGCCCA,-0.363 ± 0.42,1.47 ± 0.39
AUGUAGCAAUAUUACGAAGA,,-0.739 ± 0.21
CCCAAGCAAUAUUACGGCUG,-4.22 ± 0.23,-2.69 ± 0.16
AGCAAGCAAUAUUACGGUUC,-3.75 ± 0.17,-3.42 ± 0.25
CGUCAGCAAUAUUACGUCUG,-0.234 ± 0.062,0.106 ± 0.08
AUGUAGCAAUAUUACGCCCU,0.267 ± 0.097,0.0833 ± 0.098
UUCCAGCAAUAUUACGAACA,-1.42 ± 0.21,-0.887 ± 0.17
AAACAGCAAUAUUACGAACA,-1.78 ± 0.09,-0.635 ± 0.084
UUUUAGCAAUAUUACGAGUU,,-0.193 ± 0.24
GAUAAGCAAUAUUACGGCCC,-0.576 ± 0.19,-0.0157 ± 0.28
CAAGAGCAAUAUUACGGCGA,-3.9 ± 0.28,-3.24 ± 0.18
UCUAAGCAAUAUUACGCACA,-2.26 ± 0.39,-0.556 ± 0.47
AUCCAGCAAUAUUACGUUAA,-1.79 ± 0.11,-1.1 ± 0.12
UGGUAGCAAUAUUACGACCU,-0.697 ± 0.13,0.261 ± 0.14

Sequence,self-splicing fitness (ln) (30 °C),self-splicing fitness (ln) (37 °C)
GGCAAGCAAUAUUACGUGGU,-2.43 ± 0.085,-1.57 ± 0.075
CGAUAGCAAUAUUACGCCGU,-2.9 ± 0.15,-1.78 ± 0.14
CUUAAGCAAUAUUACGACCA,-3.3 ± 0.4,-2.04 ± 0.4
UUAAAGCAAUAUUACGAGAG,-0.988 ± 0.061,-0.259 ± 0.11
GGCGAGCAAUAUUACGUGAG,-3.25 ± 0.18,-2.57 ± 0.2
CGACAGCAAUAUUACGUACA,-0.66 ± 0.078,-0.392 ± 0.099
AUUAAGCAAUAUUACGUACC,-2.05 ± 0.23,0.0479 ± 0.26
CCCAAGCAAUAUUACGCGAA,-3.55 ± 0.15,-2.63 ± 0.17
AGGAAGCAAUAUUACGACUC,-0.644 ± 0.3,-0.886 ± 0.45
UACUAGCAAUAUUACGCGAA,-1.97 ± 0.2,-1.18 ± 0.14
AAAUAGCAAUAUUACGUCCG,-1.39 ± 0.16,0.00872 ± 0.18
CGGCAGCAAUAUUACGGGCG,-1.85 ± 0.13,-0.898 ± 0.14
CACCAGCAAUAUUACGACGU,-2.58 ± 0.096,-1.11 ± 0.099
UCCUAGCAAUAUUACGAAUA,-2.81 ± 0.26,-1.98 ± 0.34
CGUCAGCAAUAUUACGUCCA,-1.97 ± 0.085,-1.36 ± 0.11
AAAGAGCAAUAUUACGCAGU,-3.46 ± 0.2,-1.71 ± 0.17
GUCCAGCAAUAUUACGCUGC,-1.85 ± 0.34,0.221 ± 0.36
GCUCAGCAAUAUUACGAGAU,-1.4 ± 0.077,-0.431 ± 0.078
AGCAAGCAAUAUUACGACGC,-1.09 ± 0.11,0.048 ± 0.12
CAAGAGCAAUAUUACGCAGA,-3.45 ± 0.19,-2.12 ± 0.16
AUGAAGCAAUAUUACGUCAC,-2.97 ± 0.26,-1.09 ± 0.18
GGGAAGCAAUAUUACGUGCU,-1.69 ± 0.12,-0.273 ± 0.11
GGCGAGCAAUAUUACGAGAU,-3.61 ± 0.32,-2.37 ± 0.49
